Data set [1] deals with T1, mLDHD (Mus musculus, UniProt Q7TNG8).
T1 construct: gene Ldhd
T1 sequence (Q7TNG8 22-484): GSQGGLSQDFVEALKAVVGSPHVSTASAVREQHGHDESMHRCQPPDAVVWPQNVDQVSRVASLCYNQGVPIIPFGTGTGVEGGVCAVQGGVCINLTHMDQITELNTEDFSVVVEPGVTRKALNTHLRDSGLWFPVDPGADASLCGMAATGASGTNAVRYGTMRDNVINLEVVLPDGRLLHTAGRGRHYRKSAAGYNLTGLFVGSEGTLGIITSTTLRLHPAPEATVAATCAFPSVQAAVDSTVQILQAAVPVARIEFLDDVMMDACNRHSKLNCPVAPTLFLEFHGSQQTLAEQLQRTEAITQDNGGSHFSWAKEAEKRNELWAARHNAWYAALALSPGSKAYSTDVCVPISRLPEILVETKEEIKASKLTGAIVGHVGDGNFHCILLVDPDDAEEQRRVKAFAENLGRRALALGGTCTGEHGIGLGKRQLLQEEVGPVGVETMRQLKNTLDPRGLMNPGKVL
Put plainly: X-ray crystal structure, […] Å. The format is binding. Particulars: non-covalently bound, co-purified from expression host.

Data set [2] addresses T2, mLDHD (Mus musculus, UniProt Q7TNG8, H405A).
T2 construct: gene Ldhd
T2 sequence (Q7TNG8 22-484 H405A): T1 sequence (Q7TNG8 22-484) with H384A
As to the kind of experiment: X-ray crystal structure (soak). The class given is binding. Particulars: FAD-bound crystals; no Mn2+ at active site; DL mixture soaked.

Substrate in data set [3]: C[C@@H](O)C(=O)O
Put plainly: purified protein. As to conditions: 50 mM Tris-HCl pH 7.4, 50 μM MnCl2, 200 μM PMS, 100 μM DCIP, 37 °C.

Substrate in data set [4]: CC(C)CC(O)C(=O)O
As to the kind of experiment: purified protein. The format is biochemical, Mus musculus. As to conditions: 50 mM Tris-HCl pH 7.4, 50 μM MnCl2, 200 μM PMS, 100 μM DCIP, 37 °C, racemate, KM calculated on D-isomer concentration.

Substrate in data set [5]: CC(C)[C@@H](O)C(=O)O
Put plainly: purified protein. The class given is biochemical, Mus musculus. Particulars: 50 mM Tris-HCl pH 7.4, 50 μM MnCl2, 200 μM PMS, 100 μM DCIP, 37 °C.

Substrate in data set [6]: CCC(C)C(O)C(=O)O
As to the kind of experiment: purified protein. The format is biochemical, Mus musculus. Particulars: 50 mM Tris-HCl pH 7.4, 50 μM MnCl2, 200 μM PMS, 100 μM DCIP, 37 °C.

Substrate in data set [7]: CCCC(O)C(=O)O
Put plainly: purified protein. Particulars: 50 mM Tris-HCl pH 7.4, 50 μM MnCl2, 200 μM PMS, 100 μM DCIP, 37 °C, racemate, KM calculated on D-isomer concentration. The format is biochemical, Mus musculus.

Substrate in data set [8]: CCCCC(O)C(=O)O
As to the kind of experiment: purified protein. The class given is biochemical, Mus musculus. Particulars: 50 mM Tris-HCl pH 7.4, 50 μM MnCl2, 200 μM PMS, 100 μM DCIP, 37 °C.

Substrate in data set [9]: CCCCCCC(O)C(=O)O
As to the kind of experiment: purified protein. The format is biochemical, Mus musculus. Particulars: 50 mM Tris-HCl pH 7.4, 50 μM MnCl2, 200 μM PMS, 100 μM DCIP, 37 °C.

Substrate in data set [10]: CC[C@@H](O)C(=O)O
As to the kind of experiment: purified protein. As to conditions: 50 mM Tris-HCl pH 7.4, 50 μM MnCl2, 200 μM PMS, 100 μM DCIP, 37 °C. The class given is biochemical, Mus musculus.

Substrate in data set [11]: O=C(O)[C@H](O)Cc1ccccc1
As to the kind of experiment: purified protein. Particulars: 50 mM Tris-HCl pH 7.4, 50 μM MnCl2, 200 μM PMS, 100 μM DCIP, 37 °C. The class given is biochemical, Mus musculus.

Numbering of substitutions follows the chain as printed.

Consider five molecules from article PMC10589216, “Lactate dehydrogenase D is a general dehydrogenase for D-2-hydroxyacids and is associated with D-lactic acidosis” (Nature Communications, 2023).

For `Cc1cc2nc3c(=O)[nH]c(=O)nc-3n(C[C@H](O)[C@H](O)[C@H](O)COP(=O)(O)OP(=O)(O)OC[C@H]3O[C@@H](n4cnc5c(N)ncnc54)[C@H](O)[C@@H]3O)c2cc1C` [FAD], the “X-ray crystal structure, 1.70 Å” value in [1] is recorded as “mLDHD in complex with FAD (PDB 8JDC)”.
`CCC[C@@H](O)C(=O)O` (mixture of isomers) [D-2-HV, D-2-hydroxyvalerate]: the “X-ray crystal structure (soak)” value in data set [2] was “mLDHDH405A in complex with FAD and D-2-hydroxyvalerate (PDB 8JDN)”.
For `CCCCCC[C@@H](O)C(=O)O` (mixture of isomers) [D-2-HO, D-2-hydroxyoctanoate], the “X-ray crystal structure (soak)” value in [2] was “mLDHDH405A in complex with FAD and D-2-hydroxyoctanoate (PDB 8JDB)”.
As to `CC(C)C[C@@H](O)C(=O)O` (mixture of isomers) [D-2-HIC, D-2-hydroxyisocaproate], the “X-ray crystal structure (soak)” value in data set [2] is “mLDHDH405A in complex with FAD and D-2-hydroxyisocaproate (PDB 8JDQ)”.

B1: mLDHD (Mus musculus) (protein)
chain: T1 sequence (Q7TNG8 22-484)
As for B1, the Km in [3] is 122.0 ± 4.5 µM; in data set [4], 16.4 ± 0.7 µM; in [5], 13.9 ± 1.2 µM; in data set [6], 16.5 ± 0.1 µM; in data set [7] it was 31.4 ± 2.7 µM; in data set [8], 34.9 ± 1.6 µM. Further, the Km in data set [9] was 104.0 ± 9.0 µM; in data set [10], 62.9 ± 2.8 µM; in data set [11] it was 337.0 ± 44.0 µM. Moreover, the Vmax is 1.22 µmol/min/mg in data set [3]; 0.902 µmol/min/mg in data set [4]; 1.11 µmol/min/mg in [5]; 1.01 µmol/min/mg in data set [6]; 1.12 µmol/min/mg in data set [7]; 1.48 µmol/min/mg in data set [8]. Besides, the maximum rate (Vmax) in [9] was 0.409 µmol/min/mg; in data set [10], 1.6 µmol/min/mg; in data set [11] it was 0.788 µmol/min/mg. In addition, the kcat in data set [3] was 1.02 s⁻¹; in data set [4], 0.752 ± 0.0133 s⁻¹; in data set [5], 0.925 ± 0.015 s⁻¹; in data set [6] it was 0.842 ± 0.01 s⁻¹; in data set [7] it was 0.933 ± 0.0183 s⁻¹; in data set [8], 1.233 ± 0.0117 s⁻¹. The catalytic constant (kcat) in data set [9] was found to be 0.342 ± 0.00833 s⁻¹; in [10] it was 1.33 ± 0.015 s⁻¹; in data set [11] it was 0.657 ± 0.03 s⁻¹. Further, the kcat/Km in data set [3] was 8330 M⁻¹ s⁻¹; in data set [4] it was 45800 M⁻¹ s⁻¹; in [5] it was 66500 M⁻¹ s⁻¹; in data set [6] it was 51000 M⁻¹ s⁻¹; in [7], 29700 M⁻¹ s⁻¹; in data set [8], 35300 M⁻¹ s⁻¹. For the same molecule, the figures for the specificity constant (kcat/Km) in data set [9], in data set [10] and in data set [11] were 3280 M⁻¹ s⁻¹, 21200 M⁻¹ s⁻¹ and 1950 M⁻¹ s⁻¹, respectively.

For orientation: Km means the substrate concentration at which the rate is half of its maximum. The term Vmax denotes the top rate of the reaction or transport when substrate is in excess. For orientation: kcat means the maximal rate divided by the concentration of active sites. By kcat/Km is commonly meant the second-order rate constant that governs catalysis at low substrate concentration.
